This note sets out measurements from article PMC9080154.

This series deals with Staphylococcal enterotoxin B (SEB) (Staphylococcus aureus, UniProt P01552 28-266).
Staphylococcal enterotoxin B (SEB), sequence (P01552 28-266): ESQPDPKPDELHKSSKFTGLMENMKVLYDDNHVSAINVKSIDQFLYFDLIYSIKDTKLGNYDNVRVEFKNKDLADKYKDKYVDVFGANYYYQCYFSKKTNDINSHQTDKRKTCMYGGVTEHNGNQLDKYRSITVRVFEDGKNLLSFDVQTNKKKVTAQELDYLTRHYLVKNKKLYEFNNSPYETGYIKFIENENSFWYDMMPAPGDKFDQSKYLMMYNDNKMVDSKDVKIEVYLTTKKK

B1: SEB aptamer (ssDNA)
DNA: GGTATTGAGGGTCGCATCCACTGGTCGTTGTTGTCTGTTGTCTGTTATGTTGTTTCGTGATGGCTCTAACTCTCCTCT
Take B1: the binding result is listed as “binds”.

B2: SEB aptamer1 (6-FAM) (ssDNA)
DNA: B1 DNA
For B2, the binding result is “binds”.
